For one experiment, the target named is T1, caspase 8 (Homo sapiens, UniProt Q14790).
T1 construct: 21 amino acid linker (vector-derived) (N); purchased Alexis Biochemicals 201-041-C005
The experiment can be described thus: In vitro self-activation of recombinant caspase 8. Type of experiment: biochemical. The settings on record: peptides 200 μM, 2 h, procaspase 8 (0.2 μg), colorimetric substrate. How it is done: FIG. 5 provides results showing the direct association of C/EBPβ-Glu^217 with procaspases 1 and 8. […] Enzyme activity was measured in the absence (control) or presence of C/EBPβ peptides (200 μM) for 2 h, using a procaspases 1 (1U) (not shown) and 8 (0.2 μg) activity assay. Values are presented as the mean±one half the range of duplicates. Panel C provides results for cells cultured on a collagen type I matrix and incubated with the indicated cell permeant, purified synthetic N-acetyl, C-aldehyde C/EBPβ tetra-peptides (10 μM) or with recombinant C/EBPβ-HA peptides as indicated, together with the Chariot reagent (Active Motif) for 4 h. Control cells were incubated without peptides (P<0.05 for all peptides containing Ala^217).
FIG. 7 provides data showing that phosphorylation of rat C/EBPβ on Ser^105 prevents stellate cell apoptosis. Panel A provides results for mouse stellate cells transfected as described herein (See, FIG. 2), with mutant p90RSK or treated with lactacystin (10 μM) (closed bars), and co-transfected with CMV-rC/EBPβ-Asp^105 (1 μg each) (open bars) as indicated. Annexin-V-PE binding was determined as described for FIG. 2 (P<0.05 for rC/EBPβ-Asp^105). Panel B provides results of an annexin-V-PE assay for stellate cells from C/EBPβ^+/+ (closed circles) and rC/EBPβ-Asp^105 transgenic (open circles) mice treated with lactacystin (0-30 μM). The annexin-V-PE assay was performed 6 hours after treatment began (P<0.05 for rC/EBPβ-Asp^105 transgenic mice for 5-25 μM lactacystin). Panel C provides results for rC/EBPβ-HA constructs (0.3 μg) transfected into rat stellate cells. The expressed peptides were immunoprecipitated with anti-HA antibodies. Using a specific antibody, rCEBPβ-PSer^105 was detected only in cells that expressed wild-type rC/EBPβ. […] Reciprocal immunoprecipitations confirmed these associations. […] Enzyme activity was measured using a colorimetric substrate as described in the Examples. […]
Purified recombinant C/EBPβ peptides, expressed as known in the art (See, Descombes et al., supra; and Buck et al. (1994), supra), and purified synthetic N-acetyl, C-aldehyde tetrapeptides (200 μM) (American Peptide Company) were assayed for their ability to inhibit the activity of purified human recombinant caspases 1 (catalogue # 201-056) and 8 (catalogue # 201-041-C005) (Alexis Biochemicals). […] Caspase activity was determined by the release of the p-nitroaniline colorimetric (Alexis Biochemicals) substrate for caspase 1 (catalogue # 260-026) or 8 (catalogue # 260-045) within the linear part of the kinetic assay (Thornberry et al. (1997), supra; Stennicke and Salvesen, supra). […]

For experiment [1], the system named is C/EBPβ-Ala^217 stellate cells. The experiment can be described thus: Apoptosis of stellate cells from C/EBPβ-Ala^217 transgenic mice, Hoechst 33342 nuclear staining. In kind it is cell-based, mouse. As to conditions: collagen type I; IETD or transfection 1 μg. How it is done:
FIG. 2 provides results showing increased apoptosis in hepatic stellate cells from C/EBPβ^−/− and C/EBPβ-Ala^217 transgenic mice. […] Six hours after cultivation, an annexin-V-PE binding assay was performed (P<0.05 for C/EBPβ^−/− and C/EBPβ-Ala^217). […] Apoptotic cells are indicated with arrowheads.
Fluorescent labels were observed using a triple-channel fluorescence microscope. The fluorochromes utilized were FITC and Texas red (Molecular Probes). The number of annexin V (+) cells was determined by in vivo microscopy as known in the art (See, Rudel and Bokoch, supra) among all cells or those expressing the GFP indicator protein either co-transfected with C/EBPβ proteins, or alone. These values are reported herein as a percentage of annexin V (+) for cells expressing the transfected DNA. At least 1000 cells were analyzed per experimental point, including at least 100 cells expressing the transfected DNA (Buck and Chojkier, EMBO J., 15:1753-1765 (1996); Buck et al., (1994), supra; and Buck et al., (1999), supra). […] Nuclear morphology was analyzed by staining cells with Hoechst 33342 (Molecular Probes). […]

T1 sequence (Q14790 217-479): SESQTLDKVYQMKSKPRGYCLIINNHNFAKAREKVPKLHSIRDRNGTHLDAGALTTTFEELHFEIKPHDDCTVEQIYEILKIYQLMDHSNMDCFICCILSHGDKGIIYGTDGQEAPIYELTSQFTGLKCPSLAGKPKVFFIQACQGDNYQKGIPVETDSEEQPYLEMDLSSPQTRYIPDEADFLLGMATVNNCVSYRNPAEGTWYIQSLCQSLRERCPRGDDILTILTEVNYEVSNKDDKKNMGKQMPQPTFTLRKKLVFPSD

B1: C/EBPβ-Glu^217: modified murine C/EBPβ with mutation of Thr^217 to glutamic acid (SEQ ID NO:4), phosphorylation mimic (protein, listed as Mus musculus)
chain: MHRLLAWDAACLPPPPAAFRPMEVANFYYEPDCLAYGAKAARAAPRAPAAEPAIGEHERAIDFSPYLEPLAPAADFAAPAPAHHDFLSDLFADDYGAKPSKKPADYGYVSLGRAGAKAAPPACFPPPPPAALKAEPGFEPADCKRADDAPAMAAGFPFALRAYLGYQATPSGSSGSLSTSSSSSPPGTPSPADAKAAPAACFAGPPAAPAKAKAKKZVDKLSDEYKMRRERNNIAVRKSRDKAKMRNLETQHKVLELTAENERLQKKVEQLSRELSTLRNLFKQLPEPLLASAGHC
Consider B1, for which the “Inhibition of in vitro self-activation of caspase 8” value with caspase 8 was “inhibited the in vitro self-activation”. Besides, in experiment [1], the “Block of apoptosis of C/EBPβ-Ala^217 stellate cells” value was “blocked”.

Source of the values: patent US8129349B2, “Treatment of disease by inducing cell apoptosis” (The Regents of the University of California, priority 2000, dated 2012).
